{
  "source": "paper PMC8446579",
  "target": "Candida parapsilosis ATCC 7330 imine reductase CpIM1 (Candida parapsilosis ATCC 7330)",
  "experiment": "SEC",
  "data": [
    {"substance": "Candida parapsilosis ATCC 7330 imine reductase CpIM1 (enzyme)", "values": [
      {"measurement": "stoichiometry N", "value": 2}
    ]}
  ]
}
